# Assay results published in patent US20230406885A1, “CYCLIC PEPTIDES FOR TRAPPING INTERLEUKIN-1 BETA” (MERCK SHARP & DOHME LLC, priority 2022, published 2023).
# *1 amine or outer side, *2 acyl side, *3 side chain or, on linkers, in order; H or OH if unused. [ ]: non-standard residue; d: D form. 3AzaPhe4AcPip = (S)-3-(6-(4-acetylpiperazin-1-yl)pyridin-3-yl)-2-aminopropanoic acid, CC(=O)N1CCN(c2ccc(C[C@H](N[*:1])C(=O)[*:2])cn2)CC1; Pro(trans-4-NH2) = O=C([C@@H]1C[C@@H](N[*:3])CN1[*:1])[*:2]; Trp(βS-Me,4-F) = C[C@@H](c1c[nH]c2cccc(F)c12)[C@H](N)C(=O)O; Bip(4'-COOH) = N[C@@H](Cc1ccc(-c2ccc(C(=O)O)cc2)cc1)C(=O)O; hQ = L-homoglutamine, NC(=O)CCC[C@H](N[*:1])C(=O)[*:2]; Phe(4-COOH) = N[C@@H](Cc1ccc(C(=O)O)cc1)C(=O)O; h3Pal(5-CN) = N#Cc1cncc(CC[C@H](N)C(=O)O)c1; Ala(4-THP) = N[C@@H](CC1CCOCC1)C(=O)O; hTyr = N[C@@H](CCc1ccc(O)cc1)C(=O)O; h4Pal = N[C@@H](CCc1ccncc1)C(=O)O; 4Pal = N[C@@H](Cc1ccncc1)C(=O)O; hLys = NCCCCC[C@H](N)C(=O)O; dDab = NCC[C@@H](N)C(=O)O; dNMeA = CN[C@H](C)C(=O)O
# Biological target: Recombinant human IL-1β (BioLegend 579404) (human, UniProt P01584 117-269)
# Experiment: cell-based or functional assay
row,Binder,MRC5 IC50
1,"cyclo([Bip(4'-COOH)]W[Phe(4-COOH)]G[Pro(trans-4-NH2)][Trp(βS-Me,4-F)]D[dNMeA]G[Bip(4'-COOH)]FL[dA][hTyr]) (SMILES CC(C)C[C@@H]1NC(=O)[C@H](Cc2ccccc2)NC(=O)[C@H](Cc2ccc(-c3ccc(C(=O)O)cc3)cc2)NC(=O)CNC(=O)[C@@H](C)N(C)C(=O)[C@H](CC(=O)O)NC(=O)[C@H]([C@@H](C)c2c[nH]c3cccc(F)c23)NC(=O)[C@@H]2C[C@@H](N)CN2C(=O)CNC(=O)[C@H](Cc2ccc(C(=O)O)cc2)NC(=O)[C@H](Cc2c[nH]c3ccccc23)NC(=O)[C@H](Cc2ccc(-c3ccc(C(=O)O)cc3)cc2)NC(=O)[C@H](CCc2ccc(O)cc2)NC(=O)[C@@H](C)NC1=O) [SEQ ID NO: 60]",68.9 pM
2,"cyclo([Bip(4'-COOH)]W[Phe(4-COOH)]G[Pro(trans-4-NH2)][Trp(βS-Me,4-F)]D[dNMeA]G[Bip(4'-COOH)]K[Ala(4-THP)][dA][hTyr]) (SMILES C[C@@H]1C(=O)NCC(=O)N[C@@H](Cc2ccc(-c3ccc(C(=O)O)cc3)cc2)C(=O)N[C@@H](CCCCN)C(=O)N[C@@H](CC2CCOCC2)C(=O)N[C@H](C)C(=O)N[C@@H](CCc2ccc(O)cc2)C(=O)N[C@@H](Cc2ccc(-c3ccc(C(=O)O)cc3)cc2)C(=O)N[C@@H](Cc2c[nH]c3ccccc23)C(=O)N[C@@H](Cc2ccc(C(=O)O)cc2)C(=O)NCC(=O)N2C[C@H](N)C[C@H]2C(=O)N[C@@H]([C@@H](C)c2c[nH]c3cccc(F)c23)C(=O)N[C@@H](CC(=O)O)C(=O)N1C) [SEQ ID NO: 65]",15.8 pM
3,"cyclo([Bip(4'-COOH)]W[Phe(4-COOH)]G[Pro(trans-4-NH2)][Trp(βS-Me,4-F)]D[dNMeA]G[Bip(4'-COOH)][hLys]L[dA][hTyr]) (SMILES CC(C)C[C@@H]1NC(=O)[C@H](CCCCCN)NC(=O)[C@H](Cc2ccc(-c3ccc(C(=O)O)cc3)cc2)NC(=O)CNC(=O)[C@@H](C)N(C)C(=O)[C@H](CC(=O)O)NC(=O)[C@H]([C@@H](C)c2c[nH]c3cccc(F)c23)NC(=O)[C@@H]2C[C@@H](N)CN2C(=O)CNC(=O)[C@H](Cc2ccc(C(=O)O)cc2)NC(=O)[C@H](Cc2c[nH]c3ccccc23)NC(=O)[C@H](Cc2ccc(-c3ccc(C(=O)O)cc3)cc2)NC(=O)[C@H](CCc2ccc(O)cc2)NC(=O)[C@@H](C)NC1=O) [SEQ ID NO: 62]",283 pM
4,"cyclo([Bip(4'-COOH)]W[Phe(4-COOH)]G[Pro(trans-4-NH2)][Trp(βS-Me,4-F)]D[dNMeA]G[Bip(4'-COOH)]KL[dA][hTyr]) (SMILES CC(C)C[C@@H]1NC(=O)[C@H](CCCCN)NC(=O)[C@H](Cc2ccc(-c3ccc(C(=O)O)cc3)cc2)NC(=O)CNC(=O)[C@@H](C)N(C)C(=O)[C@H](CC(=O)O)NC(=O)[C@H]([C@@H](C)c2c[nH]c3cccc(F)c23)NC(=O)[C@@H]2C[C@@H](N)CN2C(=O)CNC(=O)[C@H](Cc2ccc(C(=O)O)cc2)NC(=O)[C@H](Cc2c[nH]c3ccccc23)NC(=O)[C@H](Cc2ccc(-c3ccc(C(=O)O)cc3)cc2)NC(=O)[C@H](CCc2ccc(O)cc2)NC(=O)[C@@H](C)NC1=O) [SEQ ID NO: 67]",46 pM
5,"cyclo([Bip(4'-COOH)]W[Phe(4-COOH)]G[Pro(trans-4-NH2)][Trp(βS-Me,4-F)]A[dNMeA]G[Bip(4'-COOH)]KL[dA][hTyr]) (SMILES CC(C)C[C@@H]1NC(=O)[C@H](CCCCN)NC(=O)[C@H](Cc2ccc(-c3ccc(C(=O)O)cc3)cc2)NC(=O)CNC(=O)[C@@H](C)N(C)C(=O)[C@H](C)NC(=O)[C@H]([C@@H](C)c2c[nH]c3cccc(F)c23)NC(=O)[C@@H]2C[C@@H](N)CN2C(=O)CNC(=O)[C@H](Cc2ccc(C(=O)O)cc2)NC(=O)[C@H](Cc2c[nH]c3ccccc23)NC(=O)[C@H](Cc2ccc(-c3ccc(C(=O)O)cc3)cc2)NC(=O)[C@H](CCc2ccc(O)cc2)NC(=O)[C@@H](C)NC1=O) [SEQ ID NO: 58]",248 pM
6,"cyclo([Bip(4'-COOH)]W[Phe(4-COOH)]G[Pro(trans-4-NH2)][Trp(βS-Me,4-F)]D[dNMeA]G[Bip(4'-COOH)][hQ]L[dA][hTyr]) (SMILES CC(C)C[C@@H]1NC(=O)[C@H](CCCC(N)=O)NC(=O)[C@H](Cc2ccc(-c3ccc(C(=O)O)cc3)cc2)NC(=O)CNC(=O)[C@@H](C)N(C)C(=O)[C@H](CC(=O)O)NC(=O)[C@H]([C@@H](C)c2c[nH]c3cccc(F)c23)NC(=O)[C@@H]2C[C@@H](N)CN2C(=O)CNC(=O)[C@H](Cc2ccc(C(=O)O)cc2)NC(=O)[C@H](Cc2c[nH]c3ccccc23)NC(=O)[C@H](Cc2ccc(-c3ccc(C(=O)O)cc3)cc2)NC(=O)[C@H](CCc2ccc(O)cc2)NC(=O)[C@@H](C)NC1=O) [SEQ ID NO: 63]",63 pM
7,"cyclo([Bip(4'-COOH)]W[Phe(4-COOH)]G[Pro(trans-4-NH2)][Trp(βS-Me,4-F)]D[dNMeA]G[Bip(4'-COOH)][h4Pal]L[dA][hTyr]) (SMILES CC(C)C[C@@H]1NC(=O)[C@H](CCc2ccncc2)NC(=O)[C@H](Cc2ccc(-c3ccc(C(=O)O)cc3)cc2)NC(=O)CNC(=O)[C@@H](C)N(C)C(=O)[C@H](CC(=O)O)NC(=O)[C@H]([C@@H](C)c2c[nH]c3cccc(F)c23)NC(=O)[C@@H]2C[C@@H](N)CN2C(=O)CNC(=O)[C@H](Cc2ccc(C(=O)O)cc2)NC(=O)[C@H](Cc2c[nH]c3ccccc23)NC(=O)[C@H](Cc2ccc(-c3ccc(C(=O)O)cc3)cc2)NC(=O)[C@H](CCc2ccc(O)cc2)NC(=O)[C@@H](C)NC1=O) [SEQ ID NO: 61]",312 pM
8,"cyclo([Bip(4'-COOH)]W[Phe(4-COOH)]G[Pro(trans-4-NH2)][Trp(βS-Me,4-F)]D[dNMeA]G[Bip(4'-COOH)]K[Ala(4-THP)][dA][h3Pal(5-CN)]) (SMILES C[C@@H]1C(=O)NCC(=O)N[C@@H](Cc2ccc(-c3ccc(C(=O)O)cc3)cc2)C(=O)N[C@@H](CCCCN)C(=O)N[C@@H](CC2CCOCC2)C(=O)N[C@H](C)C(=O)N[C@@H](CCc2cncc(C#N)c2)C(=O)N[C@@H](Cc2ccc(-c3ccc(C(=O)O)cc3)cc2)C(=O)N[C@@H](Cc2c[nH]c3ccccc23)C(=O)N[C@@H](Cc2ccc(C(=O)O)cc2)C(=O)NCC(=O)N2C[C@H](N)C[C@H]2C(=O)N[C@@H]([C@@H](C)c2c[nH]c3cccc(F)c23)C(=O)N[C@@H](CC(=O)O)C(=O)N1C) [SEQ ID NO: 64]",18.2 pM

# Results, then the binder that gave them:
row,MRC5 IC50,Binder
1,29.9 pM,"cyclo([Bip(4'-COOH)]W[Phe(4-COOH)]G[Pro(trans-4-NH2)][Trp(βS-Me,4-F)]D[dNMeA]G[Bip(4'-COOH)]KL[dA][h3Pal(5-CN)]) (SMILES CC(C)C[C@@H]1NC(=O)[C@H](CCCCN)NC(=O)[C@H](Cc2ccc(-c3ccc(C(=O)O)cc3)cc2)NC(=O)CNC(=O)[C@@H](C)N(C)C(=O)[C@H](CC(=O)O)NC(=O)[C@H]([C@@H](C)c2c[nH]c3cccc(F)c23)NC(=O)[C@@H]2C[C@@H](N)CN2C(=O)CNC(=O)[C@H](Cc2ccc(C(=O)O)cc2)NC(=O)[C@H](Cc2c[nH]c3ccccc23)NC(=O)[C@H](Cc2ccc(-c3ccc(C(=O)O)cc3)cc2)NC(=O)[C@H](CCc2cncc(C#N)c2)NC(=O)[C@@H](C)NC1=O) [SEQ ID NO: 66]"
2,36.2 pM,"cyclo([Bip(4'-COOH)]W[Phe(4-COOH)]G[Pro(trans-4-NH2)][Trp(βS-Me,4-F)]D[dNMeA]G[Bip(4'-COOH)][4Pal]L[dA][hTyr]) (SMILES CC(C)C[C@@H]1NC(=O)[C@H](Cc2ccncc2)NC(=O)[C@H](Cc2ccc(-c3ccc(C(=O)O)cc3)cc2)NC(=O)CNC(=O)[C@@H](C)N(C)C(=O)[C@H](CC(=O)O)NC(=O)[C@H]([C@@H](C)c2c[nH]c3cccc(F)c23)NC(=O)[C@@H]2C[C@@H](N)CN2C(=O)CNC(=O)[C@H](Cc2ccc(C(=O)O)cc2)NC(=O)[C@H](Cc2c[nH]c3ccccc23)NC(=O)[C@H](Cc2ccc(-c3ccc(C(=O)O)cc3)cc2)NC(=O)[C@H](CCc2ccc(O)cc2)NC(=O)[C@@H](C)NC1=O) [SEQ ID NO: 59]"
3,296 pM,"cyclo([Bip(4'-COOH)]W[Phe(4-COOH)]G[Pro(trans-4-NH2)][Trp(βS-Me,4-F)]D[dNMeA]G[Bip(4'-COOH)]KL[dDab][hTyr]) (SMILES CC(C)C[C@@H]1NC(=O)[C@H](CCCCN)NC(=O)[C@H](Cc2ccc(-c3ccc(C(=O)O)cc3)cc2)NC(=O)CNC(=O)[C@@H](C)N(C)C(=O)[C@H](CC(=O)O)NC(=O)[C@H]([C@@H](C)c2c[nH]c3cccc(F)c23)NC(=O)[C@@H]2C[C@@H](N)CN2C(=O)CNC(=O)[C@H](Cc2ccc(C(=O)O)cc2)NC(=O)[C@H](Cc2c[nH]c3ccccc23)NC(=O)[C@H](Cc2ccc(-c3ccc(C(=O)O)cc3)cc2)NC(=O)[C@H](CCc2ccc(O)cc2)NC(=O)[C@@H](CCN)NC1=O) [SEQ ID NO: 68]"
4,66.6 pM,"cyclo([3AzaPhe4AcPip]W[Phe(4-COOH)]G[Pro(trans-4-NH2)][Trp(βS-Me,4-F)]D[dNMeA]G[Bip(4'-COOH)]KL[dA][hTyr]) (SMILES CC(=O)N1CCN(c2ccc(C[C@@H]3NC(=O)[C@H](CCc4ccc(O)cc4)NC(=O)[C@@H](C)NC(=O)[C@H](CC(C)C)NC(=O)[C@H](CCCCN)NC(=O)[C@H](Cc4ccc(-c5ccc(C(=O)O)cc5)cc4)NC(=O)CNC(=O)[C@@H](C)N(C)C(=O)[C@H](CC(=O)O)NC(=O)[C@H]([C@@H](C)c4c[nH]c5cccc(F)c45)NC(=O)[C@@H]4C[C@@H](N)CN4C(=O)CNC(=O)[C@H](Cc4ccc(C(=O)O)cc4)NC(=O)[C@H](Cc4c[nH]c5ccccc45)NC3=O)cn2)CC1) [SEQ ID NO: 6]"
